assay: soluble fraction after stress (log2 fold change); higher = more stays soluble; pooled small domains, quantitative proteomics; conditions: stress: 50 degC
Procedure, shortened: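 Pooled custom libraries of small protein domains were each held under stress at 50°C. The read-out, high-throughput quantitative proteomics, tracked how much of each protein stayed soluble. This is reported as a base-two log fold change used to indicate aggregation propensity. Higher values mean more protein remains in solution.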

Row | Sequence | soluble fraction (log2)
1 | HMGPLYARVKAIVLARIMGGDWPPGTALPAEMELARALGVSQGTVRKALDALTAEQVVVRRQGSGTYVAE | -1.04
2 | HMEIFYGDDRVYTVSLHGQNNFPFRKKTSDFDYGFEDGTGDEEYLRVLDVTLSRLENEQFDLLFFQAGV | -0.203
3 | HMDTYKGFIFEVVDKYFSPTLNQKIGQAKNKQGIVLLQTKPSFTQDPKVLIEELKLIIDRDNLKA | -0.145
4 | HMFRSNAERAAHLASALPRAEAELAALQARGAATSENIYLRSSYFDALRYTEELRAAKRAQDALQGA | 0.0735
5 | HMAMESDELETLVDQLIVDHPDEWSRFVGGDDGDRKKMQGFFTGQIMKATKGQADGRAVAQLLGQKSA | 0.0334
6 | HMDTAEQNWRLRGKLVTLGLNARQIRMALASHAPRYLEDNIAVVERDLAAGKVRNLPAYLLAALREDYRP | -1.67
7 | HMALKSGVIAHAVDDAVMRGLNVFTVSDDGSIVSMKDNDIVLGKDGKSPYSVSEWLEELKPNVPHWFG | -0.0243
8 | HMDAYMGEAKDEETFAEEYLNDSGLLNEIPESVARYFDIVAYARDLLIGDFSLHDGHVFNMT | -0.0437
9 | HMSTMNRLPRHEQILKLVRANGFMPIEELARLLDVTPQTIRRDINTLSEENLLRRFHGGAALGPSVE | -0.0842
10 | HMETENLSPREREILEYIVKGYSYKMIAADLNIATETVRSHIKKIYKKLQVNSATEAVYKYSN | -0.322
11 | HMDYQEVEFEKLGKEILTKILLDINKKATKKTLKILIDGFNYDSYRSFYIAIGKAQISSDSILELLQH | -0.622
12 | HMSAAIGEAVIATDEINVRSGPGLSHEIVSVVSRNESYPILEERGDWVQIQLNGGQKGWVVSWLIKKKS | 0.169
13 | HMNELPSVIIMKNGRTRPYELQEISKDEEWLNQTIREHGIEPKDIFIAEFWDGRTAFILNDGRIVK | -0.555
14 | HMTTKGGLVRDTVLNEFRDSEFTRREVELVLNGVASERTIRGALSEMVERGELTQVNFGISTRYRLNQ | -0.385
15 | HMAIRPDAAVSSHAVKQRLQSLIRAEDPAAPLSDEALRLALSALGIGVSRRAVAKYRAEMGIPSSSQRKK | -0.0632
16 | HMVESLTDRELQILSLAAKGYTNKAIAVQLGISDRTVQNHLANTFQKLNAESRTEAVMRAVSLGLISA | -0.213
17 | HMTLHEAMEKLFRQVGRPMTTKEIAEKLNENKWYQKADGSPLTPYQIYGRAKNYPALFHREGSIIYLKGS | -0.41
18 | HMDDPDALITDSQLKAIHVLLGKLKIDDNLKHAYIADVLQLKDIPETLKTLTKHQGSTIIERLNLLIKDA | 0.0419
19 | HMTLFDESGYTARELEIIREVANGLSNKEIADKLFLSEGTVKNYITGILAKENLSHRTALAVYYLTGRK | 0.0583

Row | Sequence | soluble fraction (log2)
20 | HMANKLSEQIYGSILKDIVNGVYAPREFISEAQIAAKYGVSKAPVKEAMHILASEGFLLSYPKRGYMVN | -0.347
21 | HMNSLFPLSLKYLREQANITQAELAQKLDVTQQAVGRWERGQTSPDYETLKRLSVLFNVSVDYLLGV | -0.304
22 | HMTVKKLIINEDNSGRRIDNYLLSIFNSVPRSKIYNIIRKGEVRVNSSRIKPSYRLEEGDQVRIPPNLDYT | -1.04
23 | HMQERKYTVSFNTNGGSTINDQKITSGNVIISPGAPKRSGYTFVGWYYHGQPFDLNTKINQDYVLVAKWIK | -1.16
24 | HMGVLDFSAQLLKHLEMNGGQTPLGDKSPAEEIYAVFGVSKKVFKKAVGDLYRKRLIEISSNGIRMTS | -0.968
25 | HMASFTDAQALEVKDLYPDWSKIPEGTHLEAGQRVRYNGNLYKVRTGQAHDKQSTWTPTDAASLFEAID | 0.116
26 | HMDRASGEEEALKEAEDAISRVWEFDGPVELNPQNSYLRRLQHELASRYNVKSVSIGQEPNRRVVYYK | -0.0181
27 | HMADNKDMQAAFMEALNGLKEYAKVNGNIVTKEDVNSYFKDMHLDDNKYSMITGYLMANGITIKG | 0.23
28 | HMTDKLEEEAKKKAMEDALADEMNISKTIVHDGIRELARIGFLDVISRKGIYVADYTFTGNLETLLAVIRY | -0.926
29 | HMENVIYGINGPVVTVRNSRSFSMMEMVFVGNERLVGEVIGITDKITTIQVYEETTGLRPGEPVYGTGSPM | -3.97
30 | HMDSMATVPDLVGKTEDEAKALANDAHLGVQMAGEEASDQEKGKISRQETAAGTQVAEYTTVKYWVSTGTQ | 0.124
31 | HMDIDLNTIKKITLDDIHAFLSYLTTTYHSKAATRARKASSIRVFFNYLSAKANLIEVNPAQNLETPKLD | 0.0581
32 | HMQSLSDQVFFYLKERIINNEMVPGSIISIEKLTSEFGISNTPVREAIVRLAGLDLVTIHRNKNITVS | -2.39
33 | HMSAATGIINTDNVNIRSGPATTYDAVGRLNQGSSVEILSSRNDWYQIQANSLKGWVRNDLLNVQK | 0.0404
34 | HMNLVRQHTDYAFRLLVALSQAPGKPISTRTLASAADVPYQFASKIMQKLHEEGLVESVMGPFGGFRLVQ | -2.52
35 | HMQLGQMIVKLRKEQGLTQETFAKKFNVTRQTVSNWENEKSYPDLHTLVKISDEFHLSLDILLK | -2.8
36 | HMDRTLTYTVSIEESDLRADQFLSRRGFSSHLLTRLRKNMEHLLINGTPSRTNTHLHEGDILTVHIVEE | -0.479
37 | HMNRPYETLFTGLTTDEASAIVGKLEEYGAADYKIEGDTIKVPAAQEPDLKAKLLLDGYPKS | 0.105
